The text below walks through data of patent US11945858B2, “Antibodies and antibody fragments against HNAV1.7 channel and their use in pain and cancer indications” (NATIONAL RESEARCH COUNCIL OF CANADA, priority 2018, dated 2024).

In data set [1] the test system is lung metastasis of prostate cancer. To be noted: rat, in vivo; cited from earlier work.
A further data set relates to glioblastoma U87MG cells. Kind of data set: Soft agar assay, U87MG.
The test system of data set [2] is ovarian cancer SKOV-3 cells. Kind of data set: Soft agar assay, SKOV-3.
Data set [3] has as its system glioblastoma U87MGvIII cells. Kind of data set: Soft agar assay, U87MGvIII.
In another data set the test system is CHO-3E7. The data set can be described thus: Cell-ELISA on live CHO-3E7 cells. The class given is cell-based, Chinese hamster. To be noted: hybridoma supernatant; OD450 nm; duplicate 1. How it is done:
Cell-ELISA. Sterile 96-well plates (Costar #3595) were pre-treated with 50 μl/well of branched polyethyleneimine (PEI, Sigma Cat #408727) at 25 μg/ml in PBS for 30 min at room temperature. PEI was removed and CHO-3E7 or hNAv1.7-CHO (ChanTest cat #CT4003) were seeded at 6×10^5 cells per well in FreeStyle F17 Expression Medium (Gibco Cat #A1383501) and incubated overnight at 37° C., 5% CO2. Microplates were blocked with Starting block (Thermofisher Cat #37538) for 30 min at room temperature, and 50 μl of hybridoma supernatants were added and incubated at 4° C. for 3 h. Plates were washed 5 times with PBS and incubated for one hour at 4° C. with 50 μl of secondary antibody HRP-conjugated F(ab′)2 goat anti-mouse IgG (H+L) (Jackson Immunoresearch #115-036-062) diluted 1/5000 in blocking buffer. After 10 washes with PBS, 50 μl of TMB substrate solution (Pierce Cat #34021) was added and further incubated for 60 min at room temperature. Twenty-five μl/well of stop solution ([…] 1M) was added and OD450 nm measurements were done using a microplate reader (Spectramax 340 PC, Molecular Devices).
In general terms: ELISA stands for enzyme-linked immunosorbent assay.

Data set [4] addresses T1, FC5DIE3IR (Homo sapiens, UniProt Q15858).
T1 construct: The supernatant was collected and loaded on a 5 ml MabSelect™ SuRe™ column; made in house; host or cells: CHO-3E7 (transient, pTT5 vector), purified from supernatant
Kind of data set: Evaluation of apparent affinity of purified mAbs in ELISA. The class given is binding. To be noted: purified mAb, OD 405 nm. How it is done:
Screening. Hybridoma supernatants were screened by ELISA to detect specific binders. To this end, 96-well half-area plates (Costar #3690) were coated with 25 μl of FC5DIE3IR or FC5-VHH or FC5-hFc-1X0 at 5 μg/ml in PBS and incubated overnight at 4° C. Microplates were washed 3 times with PBS, blocked with PBS-BSA 1%, and 25 μl of hybridoma supernatants were added and incubated at 37° C., 5% CO2 for 2 hours. Plates were washed 4 times with PBS-Tween 20 0.05% and incubated for one hour at 37° C., 5% CO2 with 25 μl of secondary antibody alkaline phosphatase conjugated F(ab′)2 goat anti-mouse IgG Fc-gamma specific (Jackson Immunoresearch #115-056-071) diluted 1/3000 in blocking buffer. After 4 washes with PBS-Tween 20 0.05%, 25 μl of a 1 mg/ml pNPP substrate solution was added and further incubated for one hour at 37° C. OD405 nm measurements were done using a microplate reader (Spectramax 340 PC, Molecular Devices).
Evaluation of apparent affinity in ELISA. Purified antibodies were assessed for their binding activity by ELISA in a dose-dependent binding curve. […] The data were analyzed with GraphPad Prism software using one-site specific binding-with Hill slope non-linear regression curve fit model to determine Bmax (maximum specific binding) and Kdapp (concentration needed to achieve a half-maximum binding at equilibrium) for each mAb tested. […]

The next data set deals with hNav1.7 channels (Homo sapiens, UniProt Q15858, W1161R). Kind of data set: Patch-clamp whole-cell recordings in hNav1.7-HEK293 cells. The class given is cell-based. The following applies: example recordings; 1-3 μM. Background: The patch-clamp technique gives a direct electrical read-out from membranes.
For data set [5], the target named is T1, FC5DIE3IR. Kind of data set: Surface Plasmon Resonance of mAbs, FC5DIE3IR. The class given is binding. The following applies: Fc-captured mAb, FC5-DIE3IR flowed; SCK; 25 °C. On the procedure:
(§1) Surface Plasmon Resonance of mAbs. FC5 and FC5DIE3IR proteins were SEC purified using a Superdex 75 column (GE Healthcare) connected to an AKTAPurifier (GE Healthcare) in HBS-EP+ running buffer (10 mM HEPES, pH 7.4, containing 150 mM NaCl, 3 mM EDTA and 0.05% P20) at a flow rate of 1 ml/min. Monomeric eluted peaks were used to flow over Fc-capture 3A8 mAb surfaces. To prepare the 3A8 mAb surfaces, approximately 6000 RUs of anti-mouse IgG (GE Healthcare) was first immobilized on CM5 Series S sensor chips (GE Healthcare) at pH 5.0, using standard amine coupling methods previously reported (Hussack et al., 2011) and according to the manufacturer's instructions (GE Healthcare). HBS-EP running buffer used for SPR experiments. The mAb 3A8 was captured on the anti-mouse IgG surface using 10 μg/ml of mAb, 30 sec contact time and flow rate of 10 μl/min. IMAC-purified DI-D VHH was passed through a Superdex 75 (GE Healthcare) column for SEC purification in HBS-EP buffer (10 mM HEPES, pH 7.4, containing 150 mM NaCl, 3 mM EDTA and 0.005% P20), connected to an AKTAPurifier (GE Healthcare) at a flow rate of 1 ml/min. Test binding experiments of FC5 control and FC5DIE3IR involved flowing 1 μM concentrations of SEC-pure material over the mAb surface at a flow rate of 30 μl/min for 5 min. Surfaces could be regenerated using 10 mM glycine, pH 1.7, with a 120 sec pulse at 20 μl/min. All SPR experiments were evaluated with Biacore T200 Software v 3.0. For kinetic analysis, single cycle kinetic analysis was used by flowing a range of FC5DIE3IR concentrations (320 nM-20 nM) at a flow rate of 30 μl/min, with 600 sec contact time and 1200 sec dissociation. Regeneration conditions were the same as above. Data were fit to a 1:1 binding model and analyzed using the Biacore T200 Software v3.0.
(§2) Surfaces were regenerated by washing with running buffer (HBS-EP). Data were analyzed with BIAevaluation 4.1 software as described (Hussack et al., 2011) and affinities determined using the steady state binding model.
(§3) Surface Plasmon Resonance (SPR) for monoclonal antibodies.

The test system of the next data set is VHH FC5. Kind of data set: Surface Plasmon Resonance of mAbs, FC5 control. In kind it is binding. To be noted: 25 °C. On the procedure:
as §1, §2, §3

Data set [6] has as its target T1, FC5DIE3IR. Kind of data set: Hydrogen-Deuterium Exchange Mass Spectrometry (HDX-MS). In kind it is binding. The following applies: labelling 1, 10 and 60 min.

Several values for one entry are separate records, joined by “and”; a condition that tells them apart may be missing. Identical values can stand only once. Entries after “also recorded” stand apart in the source; their conditions may differ. A value given as a limit tells only on which side of the number the result lay.

Sequence of VHH FC5 (as listed by the source): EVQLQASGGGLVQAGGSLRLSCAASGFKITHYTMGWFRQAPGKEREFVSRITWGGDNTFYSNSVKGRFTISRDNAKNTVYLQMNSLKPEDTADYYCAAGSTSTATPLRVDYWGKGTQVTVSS

Take `NC1=N[C@H](O)[C@H]2[C@H]3O[C@]4(O)O[C@@H]([C@@H](O)[C@@]2(N1)[C@@H]4O)[C@]3(O)CO` [TTX, tetrodotoxin, reference compound]: the “Reduction of the number of lung metastasis” value in data set [1] is more than 40%. Besides, the “Reduction of colony formation” value with glioblastoma U87MG cells is 75% and 84%; in data set [2], 70%; in [3], 55%.

B1: 1G5: mouse mAb IgG1, k binding both FC5 and DIE3IR, no effect on hNav1.7 currents; negative control; SEQ ID NO: 21 and 27 (antibody, V domains shown)
VH: QVQLQQPGAELVKPGASVKLSCKASGYTFTSYWINWVKQRPGQGLEWIGNIYPGNSNTNYNEKFKSKATLTVDKSSSTAYMQLSSLTSEDSAVYYCARRYYYDYDDAMDYWGQGTSVTVSSAKTTPPSVYPLAP
VL: DIVLTQSPASLAVSLGQRATISCRASESVDSYGNGFMHWYQQKPGQPPKLLIYRASNLESGIPARVSGSGSRTDFTLTINPVEADDVATYYCQQSNEDPWTFGGGTKLEIKRADAAPTVSIFPPSS
modifications: Heavy chain of the 1G5 and 1G9 antibodies without leader sequence; Light chain of the 1G5 and 1G9 antibodies without leader sequence
As to B1, in the data set with CHO-3E7, the “ELISA on live cells (duplicates) CHO-3E7” value was found to be 0.008. Moreover, the “Bmax (maximum specific binding)” value in the data set with FC5DIE3IR [4] is 1.7. The “Effect on hNav1.7 currents (in words)” value with hNav1.7 channels was “no effect; also recorded: did not reduce hNav1.7 currents”. For the same molecule, the results for the “ka” value with FC5DIE3IR [5] and in the data set on VHH FC5 (target FC5) were 72900 M⁻¹ s⁻¹ and 289000 M⁻¹ s⁻¹, respectively. For the same molecule, the “kd” value in the data set with FC5DIE3IR [5] is 0.0136 s⁻¹; on VHH FC5 (target FC5), 0.017 s⁻¹. For the same molecule, in the data set with VHH FC5 (SPR), the “Binding to FC5 control (comment, in words)” value was “Binding to both”. The “Stabilization of FC5DIE3IR in response to mAb binding (residues, differential HDX-MS)” value with FC5DIE3IR [6] is “no effect on conformational stability”.
